These results are taken from PMC5385343, “Crystal Structure of Glyceraldehyde-3-Phosphate Dehydrogenase from the Gram-Positive Bacterial Pathogen A. vaginae, an Immunoevasive Factor that Interacts with the Human C5a Anaphylatoxin” (Frontiers in Microbiology, 2017).

The target in one data set is T1, AvGAPDH (Fannyhessea vaginae, UniProt F1T6A5).
T1 construct: gene gap; full-length, 356 residues, N-terminal His6 tag and TEV site (tag removal not described), pET21b, E. coli Rosetta(DE3)pLysS; homotetramer
Put plainly: X-ray crystal structure, […] Å. It counts as binding. As to conditions: crystallised with 0.6 mM NAD+, 0.1 M sodium citrate pH 5.5, 20% PEG 3000; one NAD+ per protomer, active site.

Data set [1] has as its system NC(=O)c1ccc[n+]([C@@H]2O[C@H](COP(=O)(O)OP(=O)(O)OC[C@H]3O[C@@H](n4cnc5c(N)ncnc54)[C@H](O)[C@@H]3O)[C@@H](O)[C@H]2O)c1. Description: purified protein. As to conditions: 40 mM Tris-HCl pH 8.5, 2 mM EDTA, 25 °C, 0.1 μM enzyme, NAD+ varied 0.03-2 mM, co-substrates G3P and Pi, fixed concentrations not given, varied: cofactor.
For the next data set, the system named is O=CC(O)COP(=O)(O)O. Put plainly: purified protein. As to conditions: 40 mM Tris-HCl pH 8.5, 2 mM EDTA, 25 °C, 0.1 μM enzyme, G3P varied 0.6-15 mM, co-substrates NAD+ and Pi, fixed concentrations not given.
The data set “crystal structure” concerns the molecule itself. Put plainly: crystal structure.

As to `NC(=O)c1ccc[n+]([C@@H]2O[C@H](COP(=O)(O)OP(=O)(O)OC[C@H]3O[C@@H](n4cnc5c(N)ncnc54)[C@H](O)[C@@H]3O)[C@@H](O)[C@H]2O)c1` [NAD^+], at AvGAPDH, the “X-ray crystal structure, 2.19 Å” value is “NAD^+ molecules are tightly bound in an elongated cleft in all four protomers”.

As for AvGAPDH (Fannyhessea vaginae DSM 15829), in data set [1], the Km worked out at 80 ± 30 µM, the maximal velocity (Vmax) worked out at 186000 µM/min/mg, the kcat was determined as 31 ± 3 s⁻¹ and the kcat/Km amounted to 384000 ± 150000 M⁻¹ s⁻¹. In the data set on O=CC(O)COP(=O)(O)O, the Km worked out at 2600 ± 500 µM, the maximal velocity (Vmax) turned out to be 342000 µM/min/mg, the catalytic constant (kcat) is 57 ± 6 s⁻¹ and the kcat/Km is 22000 ± 5000 M⁻¹ s⁻¹.

B1: D-glyceraldehyde-3-phosphate dehydrogenase from Atopobium vaginae, full-length, hexahistidine-tagged (enzyme)
chain: MKEDRLPANLAKGESMAVKVAINGFGRIGRLAFRQMFGHEGSEIVAINDLTDPKMLANLLKYDSSQGNYARNHSVVAGEDSITVDGKTIKIYKEADAHNLPWGELNVDVVLECTGFYTSKAKAQAHIDAGAKKVVISAPAGKDLPTIVYNVNHEILTKDDNIISAASCTTNCLAPMAKALNDFAPIQSGIMSTIHAFTGDQMVLDGPHRKGDLRRARAAAINIVPNSTGAAKAIGLVIPELNGKLIGSAQRVPVPTGSTTLLFAVVKSDKEITVDSINAAMKAASDPETFGYNEDPIVSSDIIGMTYGSLFDATQTMVQDLGNGLYQVEVVSWYDNENSYTSQMVRTIKYFEKFVA
notes: also called AvGAPDH; GAPDH from A. vaginae; source: E. coli Rossetta(DE3)pLysS, purified (HisTrap, Superdex 200)
For the molecule B1, the “stoichiometry N” value in the data set “crystal structure” amounted to 4.
